Test results taken from paper PMC11536930 (Nature structural & molecular biology, 2024).
Each block holds one binder with its values, some of them ahead of it.

Assays:
cryo-EM structure = biological target: the molecule itself; test: cryo-EM structure
[1] = biological target: rat GluA2 flip(Q) isoform (unedited homotetrameric AMPA receptor), FLAG-tagged (rat, UniProt P19491-2 22-883); test: cryo-EM structure

B1: rat GluA2 flip(Q) isoform N619K mutant, FLAG-tagged (receptor, UniProt P19491-2 22-883, looked up)
chain: VSSNSIQIGGLFPRGADQEYSAFRVGMVQFSTSEFRLTPHIDNLEVANSFAVTNAFCSQFSRGVYAIFGFYDKKSVNTITSFCGTLHVSFITPSFPTDGTHPFVIQMRPDLKGALLSLIEYYQWDKFAYLYDSDRGLSTLQAVLDSAAEKKWQVTAINVGNINNDKKDETYRSLFQDLELKKERRVILDCERDKVNDIVDQVITIGKHVKGYHYIIANLGFTDGDLLKIQFGGANVSGFQIVDYDDSLVSKFIERWSTLEEKEYPGAHTATIKYTSALTYDAVQVMTEAFRNLRKQRIEISRRGNAGDCLANPAVPWGQGVEIERALKQVQVEGLSGNIKFDQNGKRINYTINIMELKTNGPRKIGYWSEVDKMVVTLTELPSGNDTSGLENKTVVVTTILESPYVMMKKNHEMLEGNERYEGYCVDLAAEIAKHCGFKYKLTIVGDGKYGARDADTKIWNGMVGELVYGKADIAIAPLTITLVREEVIDFSKPFMSLGISIMIKKPQKSKPGVFSFLDPLAYEIWMCIVFAYIGVSVVLFLVSRFSPYEWHTEEFEDGRETQSSESTNEFGIFNSLWFSLGAFMQQGCDISPRSLSGRIVGGVWWFFTLIIISSYTAKLAAFLTVERMVSPIESAEDLSKQTEIAYGTLDSGSTKEFFRRSKIAVFDKMWTYMRSAEPSVFVRTTAEGVARVRKSKGKYAYLLESTMNEYIEQRKPCDTMKVGGNLDSKGYGIATPKGSSLGTPVNLAVLKLSEQGVLDKLKNKWWYDKGECGAKDSGSKEKTSALSLSNVAGVFYILVGGLGLAMLVALIEFCYKSRAEAKRMKVAKNPQNINPSSSQNSQNFATYKEGYNVYGIESVKI
- binding result (cryo-EM structure): binds

- stoichiometry N [1]: 4 γ2(KKEE) per A2iQ tetramer
B2: rat TARPγ2 (stargazin) K52E/K53E (KKEE) mutant, 1D4-tagged (natural protein)
chain: MGLFDRGVQMLLTTVGAFAAFSLMTIAVGTDYWLYSRGVCKTKSVSENETSEENEEVMTHSGLWRTCCLEGNFKGLCKQIDHFPEDADYEADTAEYFLRAVRASSIFPILSVILLFMGGLCIAASEFYKTRHNIILSAGIFFVSAGLSNIIGIIVYISANAGDPSKSDSKKNSYSYGWSFYFGALSFIIAEMVGVLAVHMFIDRHKQLRATARATDYLQASAITRIPSYRYRYQRRSRSSSRSTEPSHSRDASPVGVKGFNTLPSTEISMYTLSRDPLKAATTPTATYNSDRDNSFLQVHNCIQKDSKDSLHANTANRRTTPV
